Results on eight molecules are retold here after patent US20060128618A1 (APLAGEN, published 2006).

*1 amine or outer side, *2 acyl side, *3 side chain or, on linkers, in order; H or OH if unused. Bridges are numbered along the chain shown (N, C = ends). Where no end group is shown, it is not given here. [ ]: non-standard residue; d: D form. Als = 5-aminolevulinic acid, O=C(CCC(=O)[*:2])CN[*:1]

The assay addresses T1, erythropoietin receptor (UniProt P19235 25-508, limits assumed).
T1 sequence (looked up): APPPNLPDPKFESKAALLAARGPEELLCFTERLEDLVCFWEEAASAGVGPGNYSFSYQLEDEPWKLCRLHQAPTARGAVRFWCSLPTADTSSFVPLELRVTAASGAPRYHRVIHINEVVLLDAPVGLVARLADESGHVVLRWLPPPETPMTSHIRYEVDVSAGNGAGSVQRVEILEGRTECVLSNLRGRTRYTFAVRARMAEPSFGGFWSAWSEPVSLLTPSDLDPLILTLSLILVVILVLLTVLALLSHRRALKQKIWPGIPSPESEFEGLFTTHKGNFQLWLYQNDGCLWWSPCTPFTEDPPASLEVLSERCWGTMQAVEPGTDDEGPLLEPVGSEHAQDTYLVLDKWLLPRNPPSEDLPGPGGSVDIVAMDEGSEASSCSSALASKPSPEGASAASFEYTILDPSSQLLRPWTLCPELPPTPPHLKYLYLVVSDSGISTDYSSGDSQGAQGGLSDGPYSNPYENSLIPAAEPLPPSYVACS
Put plainly: cell-based or functional assay.
On to GGTYSCHFAKLTWVCKKQGG (disulfide 6-15 (inferred)) [peptide GGTYSCHFAKLTWVCKKQGG], for which the “EC50, proliferation assay with TF-1 cells by MTT” value amounted to 5.04 µM. Then GGTYSCHFGKLTWVCKKQGG (disulfide 6-15 (inferred)) [peptide SEQ. ID NO. 2 GGTYSCHFGKLTWVCKKQGG], with 3.28 µM; and GGTYSCHFGRLTWVCKPQGG (disulfide 6-15 (inferred)) [peptide SEQ. ID NO. 5 GGTYSCHFGRLTWVCKPQGG], with 5.16 µM. For GGTYSCHFGPLTWVCKKQGG (disulfide 6-15 (inferred)) [peptide GGTYSCHFGPLTWVCKKQGG] the value was 2.52 µM; for GGTYSCHFGKLTWVCKPQGG (disulfide 6-15 (inferred)) [peptide SEQ. ID NO. 4 GGTYSCHFGKLTWVCKPQGG], 4.66 µM; for GGTYSCHFGRLTWVCKKQGG (disulfide 6-15 (inferred)) [peptide SEQ. ID NO. 6 GGTYSCHFGRLTWVCKKQGG], 4.97 µM. For GGTYSCHF[Als]LTWVCKKQGG (disulfide 6-14 (inferred)) [peptide SEQ. ID NO. 8 GGTYSCHF-(Als)-LTWVCKKQGG] the value was 5 µM; for GGTYSCHF[Als]LTWVCKPQGG (disulfide 6-14 (inferred)) [peptide SEQ. ID NO. 7 GGTYSCHF-(Als)-LTWVCKPQGG], 5.26 µM.
